According to a protein production outcome set (Wang et al. 2014):

Assay: label from the status in PepcDB records

With “MEIFELILLMLSAVFLSNVLSRFLPSIAVPLIQVVLGIILAIPLGDHTMDLNPELFLLLFMAPILFNDGASTDKKSLWKNRKAILSLSIGLVFVTVGVLGAFIHYLIPAIPFAAAFALAAALAPTDAVAVGALAEKVRVPHKIMHILEGESLINDASGLVSFQFAVLALVTGTFSFMSAGTSFLLLSLGGIALGAILSLLKIMLMRGLRQLGIENMTSFMLMEILLPFLIFMVAEKVGVNGILAVVSGGMVHSFSYKGLNPEIAQLNLLSKNTWSVIIFSLNGLVFILLGTQLPQILMTIWQDANIQKGMLFVYIIGITFLLLGLRFLWILFFRNYEENPKVDLVSRLKNTFLYTVAGVRGTITLVSALSLPFVLGNGNAFPERDLLIFIAAGVIITTLLLANFTLPLFADKKDKVTADHTTDIVLLRDIVQQLQAYKTDENAVEMNKVLNMYNNRIFSLMEHKEVNATEKELRRLTQEWQLENTRRLVFERKIDTGVGLSHMMRLGKRLYVQTRAEKYRARMRYRQLLSHRFRDFRFVPLTFEERRKEIAKLQNENNLFVMQKLQDLDSNEYNPEIISLYLMNFERALGRGKNKKESNDEALQTTIDLASQIERETIQRYFEKGTITRKEMKVYRDNLLAIEANMQLEF” as the sequence, how does the protein production read?
Its protein production is “failed”.

For “MRRFLLSAAKILVSAALLYLALRKTDFAALAARIDATSFGWLAAAVAATIFQLFVNAVRWRAIGACCEAPLTTGRSMRYAMIGSFFNQTLPSAIGGDAVRVWLLARAGAGWRAATYSVFVDRATGLIALSAIIFVTLPWTLRLIDNADGRLGLMLLDFAALGAGVVFLTLPFLRFGLLDRIWATRHMRGCSEVALKALSSPKSAVILIATSLIIPILAVVIAWCVARAIESPSSFVQLFELVPPIMLITMIPISIAGWGVREASMGLAFGYAGLNPSDGVAVSLLFGAVYFVVGGIGGLIWIMSAEKAAKGDAPIEVPE”, which protein production is on record?
The protein production was “failed”.

For “SQLISADGKVFGSYAHSGDNRIYTRYNEISPDLIKALIATEDVRFRKHSGIDSKGLFRAVVKRGILNQKSGGGGSTITQQLAKLLYSPRTETKLGRLFQKPIEWVIAVKLERFYTKEEIITMYLNYFDFLYNAVGIKSAAYTYFGKQPADLKIEEAAVLVGMCKNPAYYNPVLHG”, which protein production is on record?
The protein production was “failed”.

For “MGHHHHHHSHMADNMTTTQIEVGPGATNATINFEAGILECYERFSWQRALDYPGQDRLHRLKRKLESRIKTHNKSEPENKRMSLEERKAIGVKMMKVLLFMDPSAGIEGFEPY”, which protein production is on record?
The protein production was “not failed”.

With “METQDHTLYVLLGPTGVGKTDLSLDIAERLGSPIISADSRQIFRELPIGTAAPTPEQRAKVPHLFVGTHSVRDYYSAGMYEVEVLEALKELFRKYRGVLLTGGSMMYIDAVCRGIDDIPDPFPEVREELYARYAAEGLDGILAQLRLLDPDYYAKVDRRNYKRVIHGLEICLSTGRPFSSFHRHEAKERPFRIVKIGLYREREELCKRIDARVLEMMEQGLEEEARAVYPLRHLNALNTVGYKEMFEYFDGSIDRAEAVRRIQRNSRVYARKQMTWFRRDSTIRWFHPEADKGTVLTLVT” as the sequence, how does the protein production read?
Its protein production is “failed”.

For “MYCRMEFNFFMNDVVQMARKEMVESGYDQLTTPEEVDEVLKEKGTVLVMVNSVCGCAGGIARPAAAYMKNYDKKPDRFVTVFAGQDKEATARAREYFKGYAPSSPSFALLKDGEIQMMVERHEIEGHEPIQVVQKLEKAFDQYCS”, which protein production is on record?
Its protein production is “failed”.

Which protein production does the source give for “MNAPLSHSRPMMQPSEDKSLATVFPFAGRVLDETPMLLGEGPTFDPASGTAWWFNILERELHELHLASGRKTVHALPFMGSALAKISDSKQLIASDDGLFLRDTATGVLTLHAELESDLPGNRSNDGRMHPSGALWIGTMGRKAETGAGSIYHVAKGKVTKLFADISIPNSICFSPDGTTGYFVDTKVNRLMRVPLDARTGLPTGKAEVFIDSTGIKGGMDGSVCDAEGHIWNARWGEGAVDRYDTDGNHIARYEVPGKQTTCPAFIGPDASRLLVTSAREHLDDDAITANPQHGLTFELGIEVKGRFEPLYRL” here?
The protein production was “not failed”.

Which protein production does the source give for “MKLLLALMLFMTFFAHAADPEPGSQYLQAAEAGDRRAQYFLADSWLSYGDLNKAEYWAQKAADSGDADACALLAQIKITNPVSLDYPDAKKLAEKAANAGSKVGEITLARILVNTQAGRPDYPKAISLLQKASEDLDNDSAVDAQMLLGLIYANGVGIAADDEKAAWYFKRSSAISRTGYSEYWAGMMFLNGEPGFIEKNKQKALHWLNLSCLEGFDTGCEEFETLTNG” here?
The protein production was “failed”.

Which protein production does the source give for “MSTKSKIFLVLLVFCPLSFAAHWLGWGETTVFILAGLAIVPLAAFMGTATEEIAVVIGPNAGGLLNATFGNATELILAYIALKEGLIEVVKATLTGSIIGNLLLVMGFAVFLGGLRYKEQNFQPLAARLNASTMNLGVVAILLPTALQYTSTGVEETVLQNLSVAVAVVLIGVYLLSLVFSMGTHAYLYDVGVAENMEMPELGEDVSEPEPPTEEEKPNLWLWTGVLLVVTLGVAVESELLVGSLEVATESLGLTALFTGVIVLPIIGNAAEHATAVTVAMKDKMDLSMSVVMGSSLQIAFFVAPVLVIVGWAIGQPMDLNFNPFELVAVLVAVLIVNSISSDGTSNWLEGILLLATYAIVALAFFFHPTLV” here?
Its protein production is “failed”.

For “MTYKSLPVAEKIQSYWNRRARLVIVTSFTILCAAATIYFHMILGVEIVFTHLFYIPMVFAAVWFGRRSFIVTAFLGTVLLVTHALASLGGFQDDVMRLSVMFFVNAITVILSESIGESEEALAESEEKYRTIVESARDAIITVDGNGSIVSWNSAAEKIFGYRAAEMMGRHIDTIITEENLEKHDFNRIIDREISIMVTDVEGVRKDGTRVPLEISVFSWNYMDEKFITAVIRDVTERKMAENALIESERKFRAVFDGVEDIITIVEIRENGLPGKYIEVNRAAVEKLGYSRDELLRMTPADMGVSREQSYDIIKNLLRSGKVTFNRTYISRDGRRIPVEVNSRLLELGEMKVAVSVARDITQRLENERRLRESEEKYRSLFDLSPEYILLLDPEDGRILDVNSTLAGTLGIPSEELRGRSIYELEFLSDDVKTEFRSKIEVIERDGTLEPYEMVLTDPYGREYTVRIYNKLIHAEGRECLLIVLNDISDLKRTQSMLEKSLAEKELLLKEIHHRVKNNLMIISSLLSLQSRQAKDRETMDLFRESENRTRSMVLIHERLYRSEDLKNIDLAEYLGRLASEIFRSYSADSRIRLKLEIDELKVDVETAVPLGLIVNELLTNAVKHAFPDGEGTVTVSLRKRNGTVTLEVSDDGAGFPEDIDWESSPSLGLQLVRKPH”, which protein production is on record?
The protein production was “failed”.

For “MKAALLDQVARVGKALANGRRLQILDLLAQGERAVEAIATATGMNLTTASANLQALKSGGLVEARREGTRQYYRIAGEDVARLFALVQVVADEHLADVAVLEHHHHHH”, which protein production is on record?
Its protein production is “failed”.

With “MLMQYRDLAKNIIKIYQKHGRDWTQLRGDFLHEKIWLDRFLGLLPMSAKVLDLGCGSGTPIAKYLIEQGCQLTGVDTSEVMLDMAQQNFPEQIWINADIRQFSTEQTFDGILAWDSFFHLDPENQRQMFAQFSTHAASGGVLMFTSGPSYGEAIGDMFGGPLYHASLDAAEYRTLLAQYGFETIKMIAEDPECTGHTVWLARKK” as the sequence, how does the protein production read?
The protein production was “failed”.

Which protein production does the source give for “MQLSWKDIPTVAPANDLLDIVLNRTQRKTPTVIRPGFKITRIRAFYMRKVKYTGEGFVEKFEDILKGFPNINDVHPFHRDLMDTLYEKNHYKISLAAISRAKSLVEQVARDYVRLLKFGQSLFQCKQLKRAALGRMATIVKKLRDPLAYLEQVRQHIGRLPSIDPNTRTLLICGYPNVGKSSFLRCITKSDVDVQPYAFTTKSLYVGHFDYKYLRFQAIDTPGILDRPTEEMNNIEMQSIYAIAHLRSCVLYFMDLSEQCGFTIEAQVKLFHSIKPLFANKSVMVVINKTDIIRPEDLDEERAQLLESVKEVPGVEIMTSSCQLEENVMEVRNKACEKLLASRIENKLKSQSRINNVLNKIHVAQPQARDDVKRTPFIPESVKNLKKYDPEDPNRRKLARDIEAENGGAGVFNVNLKDKYLLEDDEWKNDIMPEILDGKNVYDFLDPEIAAKLQALEEEEEKLENEGFYNSDDEEEIYDGFEASEVDDIKEKAAWIRNRQKTMIAEARNRKSLKNKAIMPRSKLTKSFGKMEEHMSTLGHDMSALQDKQNRAARKNRYVERGSDVVFGDQDALTASTENGVKLRQTDRLLDGVADGSMRSKADRMAKMERRERNRHAKQGESDRHNAVSLSKHLFSGKRGVGKTDFR” here?
Its protein production is “failed”.

Which protein production does the source give for “MASTVDSNFFSSVPALHSNLGLLSPDQIELAKILLENGQSHLFQQWPELGVDDKEKLAFFDQIARLNSSYPGGLAAYIKTAKELLADSKVGKNPYDGFSPSVPSGENLTFGTDNFIEMEKRGVVEARNAAFVLVAGGLGERLGYNGIKVALPRETTTGTCFLQHYIESILALQEASNKIDSDGSERDIPFIIMTSDDTHSRTLDLLELNSYFGMKPTQVHLLKQEKVACLDDNDARLALDPHNKYSIQTKPHGHGDVHSLLYSSGLLHKWLEAGLKWVLFFQDTNGLLFNAIPASLGVSATKQYHVNSLAVPRKAKEAIGGISKLTHVDGRSMVINVEYNQLDPLLRASGFPDGDVNCETGFSPFPGNINQLILELGPYKDELQKTGGAIKEFVNPKYKDSTKTAFKSSTRLECMMQDYPKTLPPTARVGFTVMDIWLAYAPVKNNPEDAAKVPKGNPYHSATSGEMAIYRANSLILQKAGVKVEEPVKQVLNGQEVEVWSRITWKPKWGMIFSDIKKKVSGNCEVSQRSTMAIKGRNVFIKDLSLDGALIVDSIDDAEVKLGGLIKNNGWTMESVDYKDTSVPEEIRIRGFRFNKVEQLEKKLTQPGKFSVED” here?
The protein production was “failed”.

For “MNPGGAEVSVVIPAWNAEATLGRALASVRAQTLAPRQVIVVNDGSSDATPEIAARMATKTFPVTVIDRTGRGSGPAAARNAGIAAAGEPFVAFLDADDVWLPDKLARQMAALRASPDAVLCCCDAQWVGEDAPARTAHPTIYEDRPIKGGAEAWKEILLDCYVGTPCVVARRAALIEAGGFDERLVVGEDQDLWIRLALQGPVIALPEVLVRYGLSADSHMARHRALAASLWLPHFEALVSGLGARLSAGERDAILRARLWRMARSVYLDGRKDLGLSLMARAVAHGLPRRARMVFLARARLRSALGRNGLEHHHHHH”, which protein production is on record?
The protein production was “failed”.

Which protein production does the source give for “MFKLHILFALSAPQRIAFWVWRGLFVVALAAAGIGSTRAQSYSFRDYAQSDGLQGMSITGLVEDRRGVVWVATELALHRFERDRFIPVGQDQGLDARYTRALTLDHAGRLWVATANGVFVRNGEQFVQVLDHGKRIRADAGNVIAAYRTGVAVASNGALLALTPEADGHWQVQPLPVRTADGKLREPGTTLLADGQFLWVPCDGGVCRLDARGTVVEALSEADGVPARRWRVIFRERGGRLWLRGGGTIVSRAPGGARFTEHPANPENSFNTLSGSTTMVEDARGRMLTRSDHGLVRWEGTHWTDIGADQGLQLNALVGPLLLQSNGTLWLGTRGMGLQRVLGYDSIEHLTEAQGMPPAPTWTMQRLPNGMLAVGADGGASLLKRNATHAQPWLLEDGAVLSQALNITVAPDGAAWVSYYSGAIARRDPLTGVTSRVMDLPIAGYKLLFDKAGTVWIATPRGLVRGQAAPPYALAPDPAMEGKFIGDIDFDRQGRLWAATRDGLYRRNGTTWVKIPVRGSLPSQDMLQIDFAPNGEIWLSLRDTGLWHGRLQGDGSLLLQAVDDPLISRIMPYILRHDRKGRLWVGSSQGLDLYQNGHWSRITRAEGLLWDDMSSNAFLEDDDGSIWIGSSRGLSHLRDPQRLFAAQPLRVDIAEVRRGAQIVHSGASIAWSETPLEIELSTPGVEGGANRISFRYRVQARWTTSSLSHLTYPLLPPGNYTLEVQALDAYQRSASPIARFQFVIRPPWWRSIAAIAGYLLLAVVAVIALLRWRTAKLLRRKHELEQLVAERTAELEQDKRDLEAARAELSLKATHDELTGLLNRAGILAALREMLLHAARSGRPLAVVLIDLDHFKLVNDQHGHLAGDAVLAGVGHRMDTLVRGDDRIGRYGGEELLALLPGLTPGATHRLDAMHRGICGDYPVDDGWLHVTCSIGVAWFQAGETLEQLLARADAALYRAKRSGRNRIDYDHVPLDRLGQVLPLDPQQRE” here?
Its protein production is “failed”.

With “MNQQLLAKTFVELADNLVADFDLIDFLRLLTDRCVGMLDASAAGVLLADRNGELRVMAASDEQVRLLELFQLQNDEGPCLDCFRTGAPVTVPDLSAVTARWPRFAVQARRSGFGAVQALPMRLRDEVVGALNLFRATPGPFDPAATPLAQALADVATISLLQQRTAHRSTVLNEQLQTALNSRVLIEQAKGKLAERQGVDMERAFTALRTYARAHNRRLSDVARAFIDNSEPLTGLGS” as the sequence, how does the protein production read?
Its protein production is “failed”.
